Measured values as given in the Human Domainome abundance scans (Beltran et al. 2025).
± gives the uncertainty stated by the source.

B1: POU domain, class 4, transcription factor 3, residues 185 to 256; numbered along this chain, Q15319 (parent)
chain: RELEAFAERFKQRRIKLGVTQADVGAALANLKIPGVGSLSQSTICRFESLTLSHNNMIALKPVLQAWLEEAE

Variants of: B1
Experiment: abundance fitness (aPCA) (normalised: wild type 0, dead -1); higher = more abundant; growth selection in yeast, the domain comes from the species named
Conditions: Homo sapiens

Abundance fitness, by site and new letter:
A26: C -0.08 ± 0.04 | D -0.01 ± 0.052 | E -0.051 ± 0.044 | F -0.113 ± 0.046 | G -0.15 ± 0.03 | H -0.052 ± 0.058 | I -0.133 ± 0.068 | K 0.04 ± 0.047 | L -0.027 ± 0.025 | M -0.095 ± 0.035 | N -0.041 ± 0.053 | P -0.472 ± 0.053 | Q -0.029 ± 0.045 | R -0.017 ± 0.028 | S -0.012 ± 0.025 | T -0.108 ± 0.039 | V -0.069 ± 0.026 | W -0.152 ± 0.036 | Y -0.144 ± 0.044
A27: C -0.266 ± 0.076 | D -0.431 ± 0.23 | E -0.123 ± 0.081 | F -0.283 ± 0.11 | G -0.196 ± 0.046 | K -0.126 ± 0.11 | L -0.233 ± 0.064 | M -0.176 ± 0.11 | R -0.384 ± 0.14 | T 0.205 ± 0.26 | V -0.139 ± 0.047 | W -0.202 ± 0.059 | Y -0.084 ± 0.088
L28: C -0.443 ± 0.21 | D -0.716 ± 0.16 | E -0.985 ± 0.27 | F -0.239 ± 0.2 | G -0.813 ± 0.22 | K -0.915 ± 0.19 | M -0.095 ± 0.15 | N -0.623 ± 0.12 | R -1.06 ± 0.47 | S -0.688 ± 0.12 | V -0.126 ± 0.079 | Y -0.49 ± 0.23
A29: C 0.031 ± 0.085 | D -0.25 ± 0.12 | E 0.006 ± 0.18 | F -0.086 ± 0.12 | G -0.022 ± 0.077 | H -0.083 ± 0.14 | I -0.258 ± 0.25 | K 0.023 ± 0.056 | L -0.21 ± 0.059 | M -0.119 ± 0.14 | N -0.053 ± 0.095 | Q 0.123 ± 0.11 | R -0.114 ± 0.076 | S -0.09 ± 0.086 | V -0.2 ± 0.072 | W -0.181 ± 0.074 | Y -0.305 ± 0.082
N30: C -0.261 ± 0.15 | D -0.184 ± 0.5 | E -0.083 ± 0.091 | F -0.276 ± 0.1 | G -0.058 ± 0.12 | H -0.051 ± 0.16 | I -0.361 ± 0.15 | L -0.279 ± 0.049 | M -0.239 ± 0.12 | P -0.267 ± 0.058 | Q -0.022 ± 0.099 | R -0.148 ± 0.078 | S -0.186 ± 0.098 | T -0.005 ± 0.11 | V -0.177 ± 0.046 | W 0.007 ± 0.19
L31: A 0.204 ± 0.23 | C 0.352 ± 0.23 | D 0 ± 0.49 | E 0.143 ± 0.37 | F -0.034 ± 0.14 | G -0.59 ± 0.42 | M -0.284 ± 0.18 | N -0.565 ± 0.3 | Q -0.202 ± 0.28 | S -0.094 ± 0.16 | T -0.094 ± 0.48 | V 0.086 ± 0.12 | W -0.008 ± 0.2 | Y -0.228 ± 0.29
K32: A -0.056 ± 0.038 | D -0.076 ± 0.048 | E 0.034 ± 0.067 | F -0.174 ± 0.037 | G -0.169 ± 0.039 | H -0.113 ± 0.068 | I -0.049 ± 0.045 | L -0.146 ± 0.03 | M -0.048 ± 0.061 | N 0.004 ± 0.047 | P -0.158 ± 0.044 | Q -0.175 ± 0.065 | R -0.039 ± 0.035 | S -0.031 ± 0.032 | T -0.088 ± 0.051 | V -0.009 ± 0.031 | W -0.162 ± 0.052 | Y -0.12 ± 0.051
I33: F -0.223 ± 0.088 | K -0.391 ± 0.11 | L 0.062 ± 0.045 | M -0.283 ± 0.1 | N -0.341 ± 0.16 | P -0.139 ± 0.13 | S -0.764 ± 0.19 | T -0.197 ± 0.14 | V -0.515 ± 0.32 | Y -0.105 ± 0.12
P34: A 0.029 ± 0.15 | C -0.137 ± 0.16 | F -0.474 ± 0.1 | G -0.313 ± 0.33 | I -0.419 ± 0.32 | K -0.433 ± 0.33 | L -0.386 ± 0.067 | M -0.141 ± 0.093 | Q -0.458 ± 0.19 | R -0.353 ± 0.12 | S -0.124 ± 0.061 | T -0.058 ± 0.094 | V -0.271 ± 0.14 | W -0.571 ± 0.36 | Y -0.379 ± 0.14
G35: F -0.231 ± 0.14 | H -0.038 ± 0.071 | I -0.569 ± 0.2 | K -0.291 ± 0.051 | M -0.099 ± 0.087 | N -0.121 ± 0.052 | P -0.285 ± 0.06 | Q -0.076 ± 0.048 | S -0.193 ± 0.057 | Y -0.26 ± 0.074
V36: A -0.089 ± 0.1 | E -0.055 ± 0.2 | F -0.043 ± 0.071 | G -0.242 ± 0.2 | H -0.072 ± 0.093 | I 0.117 ± 0.097 | L -0.011 ± 0.043 | M 0.044 ± 0.1 | N -0.234 ± 0.32 | P -0.398 ± 0.06 | Q -0.261 ± 0.16 | R -0.332 ± 0.052 | S -0.077 ± 0.059 | T -0.3 ± 0.079 | W -0.091 ± 0.11 | Y -0.121 ± 0.19
G37: A -0.127 ± 0.053 | D -0.093 ± 0.15 | E 0.038 ± 0.057 | H 0.011 ± 0.26 | K -0.018 ± 0.036 | L -0.172 ± 0.11 | M -0.153 ± 0.18 | P -0.055 ± 0.083 | Q 0.003 ± 0.057 | R -0.063 ± 0.054 | S -0.001 ± 0.082 | V -0.039 ± 0.074 | W -0.669 ± 0.26 | Y 0.024 ± 0.43
S38: A -0.346 ± 0.23 | C -0.27 ± 0.21 | F 0.057 ± 0.095 | H -0.018 ± 0.036 | I -0.017 ± 0.042 | L -0.031 ± 0.036 | M -0.006 ± 0.03 | N 0.022 ± 0.021 | P 0.055 ± 0.041 | Q 0.029 ± 0.03 | R -0.052 ± 0.14 | T 0.017 ± 0.03 | V 0.065 ± 0.16 | W -0.389 ± 0.22 | Y -0.055 ± 0.051
L39: A -0.053 ± 0.15 | D -0.304 ± 0.16 | F -0.687 ± 0.5 | G -0.912 ± 0.23 | P 0.054 ± 0.3 | R -0.606 ± 0.15 | S -0.109 ± 0.23 | V 0.034 ± 0.15 | W -0.596 ± 0.37
S40: A -0.222 ± 0.07 | C -0.066 ± 0.12 | D 0.037 ± 0.22 | F -0.468 ± 0.11 | H -0.013 ± 0.22 | I -0.664 ± 0.38 | L -0.488 ± 0.082 | M -0.29 ± 0.12 | N -0.183 ± 0.2 | P -0.154 ± 0.064 | Q -0.287 ± 0.15 | R -0.175 ± 0.069 | V -0.354 ± 0.08 | W -0.42 ± 0.23 | Y -0.422 ± 0.079
S42: F -0.225 ± 0.069 | I -0.363 ± 0.15 | K 0.046 ± 0.11 | M -0.1 ± 0.099 | N 0.06 ± 0.4 | P -0.428 ± 0.07 | Q 0.017 ± 0.07 | T -0.116 ± 0.079
T43: A -0.148 ± 0.055 | C -0.333 ± 0.23 | D -0.29 ± 0.24 | E -0.235 ± 0.26 | F -0.425 ± 0.17 | G -0.65 ± 0.088 | H -0.296 ± 0.17 | I -0.089 ± 0.41 | K -0.153 ± 0.096 | L -0.012 ± 0.042 | M -0.053 ± 0.086 | N -0.746 ± 0.21 | P -0.836 ± 0.064 | Q -0.105 ± 0.14 | R -0.607 ± 0.11 | S -0.2 ± 0.055 | V -0.031 ± 0.045 | W -0.382 ± 0.14
I44: V 0.08 ± 0.16
C45: F -0.001 ± 0.038 | H 0.053 ± 0.079 | I 0.104 ± 0.069 | K 0.109 ± 0.17 | L -0.06 ± 0.038 | M -0.048 ± 0.083 | N -0.007 ± 0.094 | P -0.25 ± 0.05 | Q 0.003 ± 0.063 | S -0.042 ± 0.053 | T 0.012 ± 0.064 | W -0.234 ± 0.32 | Y -0.01 ± 0.059
R46: A 0.031 ± 0.061 | D 0.096 ± 0.13 | E 0.025 ± 0.17 | F -0.519 ± 0.13 | G 0.125 ± 0.097 | H -0.056 ± 0.091 | I -0.806 ± 0.16 | K 0.055 ± 0.074 | L -0.184 ± 0.056 | M -0.184 ± 0.1 | N 0.094 ± 0.081 | P -1.17 ± 0.14 | Q -0.011 ± 0.077 | S 0.024 ± 0.06 | T -0.661 ± 0.083 | W -0.334 ± 0.14 | Y -0.106 ± 0.18
F47: A -0.866 ± 0.14 | C -0.982 ± 0.15 | G -1.01 ± 0.23 | H -1.06 ± 0.33 | I -0.836 ± 0.17 | M -0.543 ± 0.09 | N -1.09 ± 0.27 | P -1.02 ± 0.13 | Q -0.875 ± 0.13 | S -0.747 ± 0.081 | T -0.94 ± 0.19 | V -0.718 ± 0.1 | W -0.508 ± 0.066
S49: A 0.016 ± 0.065 | C -0.127 ± 0.12 | D 0.067 ± 0.071 | E 0.102 ± 0.071 | F -0.515 ± 0.11 | G -0.138 ± 0.057 | H -0.033 ± 0.096 | K -0.039 ± 0.1 | M -0.117 ± 0.11 | N -0.005 ± 0.13 | P -0.957 ± 0.14 | Q -0.027 ± 0.075 | R -0.136 ± 0.066 | T 0.037 ± 0.06 | V -0.718 ± 0.11 | W -0.884 ± 0.31 | Y -0.209 ± 0.15
L50: A 0.068 ± 0.039 | D -0.139 ± 0.3 | E -0.154 ± 0.063 | G 0.043 ± 0.034 | K -0.012 ± 0.073 | P -1.02 ± 0.14 | Q 0.124 ± 0.07 | R 0.053 ± 0.03 | S 0.041 ± 0.22 | T -0.101 ± 0.027 | W -0.717 ± 0.21
T51: A -0.041 ± 0.056 | C -0.121 ± 0.12 | E -0.146 ± 0.29 | F -0.578 ± 0.31 | G -0.174 ± 0.077 | H -0.201 ± 0.21 | K 0.111 ± 0.12 | L -0.13 ± 0.056 | M 0.096 ± 0.17 | P -1.19 ± 0.27 | Q -0.074 ± 0.11 | R 0.028 ± 0.058 | S 0.056 ± 0.059 | V -0.112 ± 0.073 | W -0.406 ± 0.036
L52: M -0.55 ± 0.47 | P -0.984 ± 0.49
S53: A 0.025 ± 0.071 | E -0.065 ± 0.084 | G -0.061 ± 0.046 | H -0.174 ± 0.12 | K -0.222 ± 0.093 | P 0.042 ± 0.09
